Experimental findings from patent WO2011104307A2 (dated 2011) are described below.

This assay addresses T1, rProtein A Sepharose FF (Staphylococcus aureus, UniProt P38507 37-327).
T1 construct: the protein ligand is immobilized on agarose beads; also called rProtein A Sepharose 4 FF
Briefly: microtiter plate column chromatography, Bradford assay; Bound (%).

B1: Bevacizumab Fab fragment (Fab, V domains shown)
VH: EVQLVESGGGLVQPGGSLRLSCAASGYTFTNYGMNWVRQAPGKGLEWVGWINTYTGEPTYAADFKRRFTFSLDTSKSTAYLQMNSLRAEDTAVYYCAKYPHYYGSSHWYFDVWGQGTLVTVSS
VL: DIQMTQSPSSLSASVGDRVTITCSASQDISNYLNWYQQKPGKAPKVLIYFTSSLHSGVPSRFSGSGSGTDFTLTISSLQPEDFATYYCQQYSTVPWTFGQGTKVEIKR
notes: also called Fab fragments
B1: the binding result was “no binding”.
